These results are taken from paper PMC3501478, “Structure of the Human Discs Large 1 PDZ2– Adenomatous Polyposis Coli Cytoskeletal Polarity Complex: Insight into Peptide Engagement and PDZ Clustering” (PLoS ONE, 2012).

In the test the target is T1, human Discs Large 1 (hDlg1) PDZ2 domain, residues 310-407 (human, UniProt Q12959 310-407).
T1 construct: N-terminal gly-ser cloning artifact left on the PDZ2 domain after thrombin cleavage of GST; human Discs Large 1 (Dlg1), PDZ2 domain, residues 310-407; synthetic gene with E. coli codon usage in pGEX-2T; In the final model chain A holds residues 310-406, with R310 modelled as alanine; also called hDlg PDZ2; source: E. coli BL21 DE3 pLysS, purified (Glutathione Sepharose, thrombin cleavage, SP …)
Put plainly: crystal structure; 1.4 mM Dlg1 PDZ2 incubated with 1.7 mM APC C-terminal peptide (1:1.2) in 100 mM NaCl, 25 mM Tris pH 7.0, 0.1% beta-mercaptoethanol; hanging drop, 200 mM sodium acetate, 100 mM sodium cacodylate pH 6.25, 28% PEG 8000, 20°C; space group P212121, 2.0 Å. As to conditions: both partners purified.

No end group written: not given here. TMR = tetramethyl rhodamine

T1 sequence (Q12959 other isoform, or with tags, fused parts or gaps): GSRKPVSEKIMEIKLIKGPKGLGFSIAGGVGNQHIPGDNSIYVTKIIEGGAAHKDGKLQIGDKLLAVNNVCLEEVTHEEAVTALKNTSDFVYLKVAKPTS

B1: APC C-terminal peptide RHSGSYLVTSV (residues 2833-2843) with N-terminal tetramethyl rhodamine (peptide)
peptide: {TMR}-RHSGSYLVTSV
notes: human Adenomatous Polyposis Coli (APC), C-terminal 11 residues 2833-2843 of the 2843 amino acid protein; Only residues 2838-2843 are seen in the electron density; the TMR fluorophore and the N-terminal five residues are not; also called APC peptide; TMR-APC peptide; source: synthetic peptide (Yale Keck Biotechnology Resource Laboratory), purified by HPLC
For the molecule B1, the binding result is “binds”.
